According to article PMC3511376:

Target: HIV-1 envelope glycoprotein gp120 (YU2) (HIV-1 (YU2)) (UniProt P35961)
Test: SPR; BIAcore 3000, CM4 chip; gp120YU2 amine-coupled (514 RU for the Lg-CRD chip, 838 RU for the Lg-ECD chip), BSA control flow cell; Langerin injected at 20 µl/min; running buffer 150 mM NaCl, 25 mM Tris pH 7.8, 4 mM CaCl2, 0.005% P20; regeneration with 50 mM EDTA; 1:1 Langmuir fit for Lg-CRD, EC50 from titration for Lg-ECD

In the case of “Langerin carbohydrate-recognition domain (CRD) (domain or fragment)”, the Kd is reported as 25 µM.
